Test results published in the supplement of paper PMC7877785.
± gives the uncertainty stated by the source.

Test: self-splicing fitness, log relative to wild type (ln ratio); higher = more splicing; Tetrahymena group I intron in knt gene, E. coli kanamycin selection, DiMSum; sequences stand for … in CUCUCU…GGAGGGAAAAGUUAUCAGGCAUGCACCUGGUAGCUAGUCUUUAAACCAAUAGAUUGCAUCGGUUUAAAAGGCAAGACCGUCAAAUUGCGGGAAAGGGGUCAACAGCCGUUCAGUACCAAGUCUCAGGGGAAACUUUGAGAUGGCCUUGCAAAGGGUAUGGUAAUAAGCUGACGGACAUGGUCCUAACCACGCAGCCAAGUCCUAAGUCAACAGAUCUUCUGUUGAUAUGGAUGCAGUUCACAGACUAAAUGUCGGUCGGGGAAGAUGUAUUCUUCUCAUAAGAUAUAGUCGGACCUCUCCUUAAUGGGAGCUAGCGGAUGAAGUGAUGCAACACUGGAGCCGCUGGGAACUAAUUUGUAUGCGAAAGUAUAUUGAUUAGUUUUGGAGUACUCGUGGUCG
Method in brief: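 Library with all eight P1ex-region intron nucleotides randomised, intron inside the knt kanamycin-resistance gene on pET-22b(+), in E. coli BL21(DE3). Cells grew overnight at 37°C or 30°C on LB agar with or without 25 μg/mL kanamycin (plus 100 μg/mL carbenicillin, 50 μM IPTG, 0.2% rhamnose), in six replicate transformations. Pooled colonies were amplicon-sequenced on Illumina HiSeq 2500. DiMSum fitness is the error-weighted combination of wild-type-normalised replicate fold changes, kanamycin versus none.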

Row | Sequence | self-splicing fitness (ln) (30 °C) | self-splicing fitness (ln) (37 °C)
1 | CAGCAGCAAUAUUACGUUGA | -2.82 ± 0.16 | -1.93 ± 0.18
2 | CAGCAGCAAUAUUACGUUUG | -3.1 ± 0.16 | -2.01 ± 0.16
3 | CAGCAGCAAUAUUACGUUUU | -2.86 ± 0.1 | -1.15 ± 0.11
4 | CAGGAGCAAUAUUACGAAAG | -1.8 ± 0.17 | -1.11 ± 0.23
5 | CAGGAGCAAUAUUACGAAGU | -4.19 ± 0.28 | -2.39 ± 0.37
6 | CAGGAGCAAUAUUACGAAUU | -3.43 ± 0.35 | -2.43 ± 0.3
7 | CAGGAGCAAUAUUACGACAG | -0.986 ± 0.27 | -1.19 ± 0.27
8 | CAGGAGCAAUAUUACGAGCA | -2.15 ± 0.33 | -1.53 ± 0.36
9 | CAGGAGCAAUAUUACGAGGG | -3.21 ± 0.24 | -1.97 ± 0.2
10 | CAGGAGCAAUAUUACGCAGU | -2 ± 0.31 | -1.44 ± 0.29
11 | CAGGAGCAAUAUUACGCCAA | -2.89 ± 0.37 | 
12 | CAGGAGCAAUAUUACGCCCG | -2.75 ± 0.42 | -0.874 ± 0.37
13 | CAGGAGCAAUAUUACGCCCU |  | -1.65 ± 0.32
14 | CAGGAGCAAUAUUACGCCUA | -0.617 ± 0.19 | -1.01 ± 0.21
15 | CAGGAGCAAUAUUACGCCUG | -3.09 ± 0.29 | -1.01 ± 0.22
16 | CAGGAGCAAUAUUACGCGCU | -2.49 ± 0.2 | -2.62 ± 0.41
17 | CAGGAGCAAUAUUACGCUCG | -3.55 ± 0.34 | -1.37 ± 0.33
18 | CAGGAGCAAUAUUACGGAUU | -3.18 ± 0.23 | -2.52 ± 0.37
19 | CAGGAGCAAUAUUACGGCAA | -4.26 ± 0.32 | -2.84 ± 0.33
20 | CAGGAGCAAUAUUACGGCCG | -0.398 ± 0.09 | 0.0497 ± 0.12
21 | CAGGAGCAAUAUUACGGCUG | -2.97 ± 0.18 | -2.37 ± 0.22
22 | CAGGAGCAAUAUUACGGGAA | -4.1 ± 0.23 | -2.47 ± 0.17
23 | CAGGAGCAAUAUUACGGGAG | -1.92 ± 0.18 | -0.745 ± 0.17
24 | CAGGAGCAAUAUUACGGGGC | -2.17 ± 0.23 | 
25 | CAGGAGCAAUAUUACGGUCC | -2.86 ± 0.24 | -2.86 ± 0.38

Row | Sequence | self-splicing fitness (ln) (30 °C) | self-splicing fitness (ln) (37 °C)
26 | CAGGAGCAAUAUUACGGUUG | -1.89 ± 0.085 | -0.54 ± 0.12
27 | CAGGAGCAAUAUUACGUGAG | -1.42 ± 0.084 | -0.711 ± 0.098
28 | CAGGAGCAAUAUUACGUGGC |  | -1.5 ± 0.38
29 | CAGUAGCAAUAUUACGACUG | -4.55 ± 0.26 | -2.84 ± 0.23
30 | CAGUAGCAAUAUUACGAUGA | -1.92 ± 0.24 | 0.175 ± 0.18
31 | CAGUAGCAAUAUUACGCCAC | -2.54 ± 0.3 | 
32 | CAGUAGCAAUAUUACGCGAG | -2.01 ± 0.16 | -0.736 ± 0.12
33 | CAGUAGCAAUAUUACGCUAU | -3.57 ± 0.23 | -3.27 ± 0.32
34 | CAGUAGCAAUAUUACGCUUG | -0.882 ± 0.13 | -0.797 ± 0.22
35 | CAGUAGCAAUAUUACGGAAG | -1.9 ± 0.15 | -0.317 ± 0.14
36 | CAGUAGCAAUAUUACGGACU | -2.38 ± 0.16 | -0.698 ± 0.12
37 | CAGUAGCAAUAUUACGGAUG | -1.04 ± 0.099 | -0.362 ± 0.12
38 | CAGUAGCAAUAUUACGGCGU | -2.25 ± 0.12 | -0.753 ± 0.14
39 | CAGUAGCAAUAUUACGGGAA | -2.93 ± 0.26 | -2.44 ± 0.25
40 | CAGUAGCAAUAUUACGGUAG | -1.21 ± 0.067 | 0.0261 ± 0.098
41 | CAGUAGCAAUAUUACGUAAA | -2.13 ± 0.16 | -1.61 ± 0.24
42 | CAGUAGCAAUAUUACGUCAU | -3.37 ± 0.22 | -2.4 ± 0.26
43 | CAGUAGCAAUAUUACGUCUG | -3.23 ± 0.11 | -2.6 ± 0.13
44 | CAGUAGCAAUAUUACGUGAA | -3.97 ± 0.34 | -2.15 ± 0.22
45 | CAGUAGCAAUAUUACGUGCC | -3.68 ± 0.35 | -1.93 ± 0.27
46 | CAGUAGCAAUAUUACGUUGC | -3.47 ± 0.34 | 
47 | CAGUAGCAAUAUUACGUUUU | -3.8 ± 0.24 | -3.01 ± 0.24
48 | CAUAAGCAAUAUUACGAAUC | -3.25 ± 0.25 | -3.34 ± 0.37
49 | CAUAAGCAAUAUUACGACGU | -2.51 ± 0.14 | -1.27 ± 0.15
